Measured values reported in the supplement of paper PMC5998384.

Key:
HeLa Kyoto [1] = test: solubility in G1/S (NP-40 vs SDS abundance) (log2 ratio); higher = more soluble; details: cell cycle stage: G1/S
HeLa Kyoto [2] = test: solubility change mitosis vs G1/S (difference of NP-40 vs SDS log2 ratios) (log2 ratio difference); higher = more soluble in mitosis
HeLa Kyoto [3] = test: thermal stability score vs G1/S (z-score of summed log2 fold changes over temperatures); higher = more thermally stable than in G1/S
HeLa Kyoto [4] = test: melting temperature (median over replicates), in situ; higher = more thermally stable
[5] = cell cycle stage: early G1 (4.5 h after nocodazole release)
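Wherever melting temperature (median over replicates), in situ is given: HeLa Kyoto cells synchronized by double thymidine or nocodazole block, proteins quantified by TMT10plex mass spectrometry, three independent biological replicates.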
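Wherever solubility change mitosis vs G1/S (difference of NP-40 vs SDS log2 ratios) is given: synchronized HeLa Kyoto cells (double thymidine block for G1/S, nocodazole release for mitosis), protein amounts in NP-40 versus SDS lysates quantified by mass spectrometry, three biological replicates.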
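Wherever solubility in G1/S (NP-40 vs SDS abundance) is given: HeLa Kyoto cells arrested at G1/S by double thymidine block, proteins quantified by TMT10plex mass spectrometry in mild NP-40 versus SDS extracts, three biological replicates.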
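Wherever thermal stability score vs G1/S (z-score of summed log2 fold changes over temperatures) is given: synchronized HeLa Kyoto cells, proteins quantified by TMT10plex mass spectrometry, three biological replicates, mitosis taken 0.5 h after nocodazole release, G1/S directly after double thymidine block.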

TXNDC12, sequence (chain, as listed by the source): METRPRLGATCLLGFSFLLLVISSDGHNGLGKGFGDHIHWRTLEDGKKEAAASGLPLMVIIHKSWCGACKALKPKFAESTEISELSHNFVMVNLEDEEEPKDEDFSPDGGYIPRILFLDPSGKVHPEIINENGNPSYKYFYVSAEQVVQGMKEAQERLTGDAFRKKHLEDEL

Substance: MAASPGPAGVGGAGAVYGSGSSGFALDSGLEIKTRSVEQTLLPLVSQITTLINHKDNTKKSDKTLQAIQRVGQAVNLAVGRFVKVGEAIANENWDLKEEINIACIEAKQAGETIAALTDITNLNHLESDGQITIFTDKTGVIKAARLLLSSVTKVLLLADRVVIKQIITSRNKVLATMERLEKVNSFQEFVQIFSQFGNEMVEFAHLSGDRQNDLKDEKKKAKMAAARAVLEKCTMMLLTASKTCLRHPNCESAHKNKEGVFDRMKVALDKVIEIVTDCKPNGETDISSISIFTGIKEFKMNIEALRENLYFQSKENLSVTLEVILERMEDFTDSAYTSHEHRERILELSTQARMELQQLISVWIQAQSKKTKSIAEELELSILKISHSLNELKKELHSTATQLAADLLKYHADHVVLKALKLTGVEGNLEALAEYACKLSEQKEQLVETCRLLRHISGTEPLEITCIHAEETFQVTGQQIISAAETLTLHPSSKIAKENLDVFCEAWESQISDMSTLLREINDVFEGRRGEKYGYLSLPKPMKNNANLKSLKPDKPDSEEQAKIAKLGLKLGLLTSDADCEIEKWEDQENEIVQYGRNMSSMAYSLYLFTRGEGPLKTSQDLIHQLEVFAAEGLKLTSSVQAFSKQLKDDDKLMLLLEINKLIPLCHQLQTVTKTSLQNKVFLKVDKCITKTRSMMALLVQLLSLCYKLLKKLQMENNGWVSVTNKDTMDSKT [CTNNAL1]
- solubility in G1/S (log2) (HeLa Kyoto [1]): 0.208
- solubility change mitosis (log2) (HeLa Kyoto [2]): -0.111
- thermal stability score (HeLa Kyoto [3]; [5]): 0.258
- thermal stability score (HeLa Kyoto [3]; cell cycle stage: mitosis): 1.63
- melting temperature (HeLa Kyoto [4]; cell cycle stage: G1/S): 47.7 °C
- melting temperature (HeLa Kyoto [4]; cell cycle stage: mitosis): 48.9 °C

Substance: MATGGYRTSSGLGGSTTDFLEEWKAKREKMRAKQNPPGPAPPGGGSSDAAGKPPAGALGTPAAAAANELNNNLPGGAPAAPAVPGPGGVNCAVGSAMLTRAAPGPRRSEDEPPAASASAAPPPQRDEEEPDGVPEKGKSSGPSARKGKGQIEKRKLREKRRSTGVVNIPAAECLDEYEDDEAGQKERKREDAITQQNTIQNEAVNLLDPGSSYLLQEPPRTVSGRYKSTTSVSEEDVSSRYSRTDRSGFPRYNRDANVSGTLVSSSTLEKKIEDLEKEVVRERQENLRLVRLMQDKEEMIGKLKEEIDLLNRDLDDIEDENEQLKQENKTLLKVVGQLTR [PAWR]
- solubility in G1/S (log2) (HeLa Kyoto [1]): 0.552
- solubility change mitosis (log2) (HeLa Kyoto [2]): 0.127
- thermal stability score (HeLa Kyoto [3]; [5]): -0.931
- thermal stability score (HeLa Kyoto [3]; cell cycle stage: mitosis): -1.76
- melting temperature (HeLa Kyoto [4]; cell cycle stage: G1/S): 60.6 °C
- melting temperature (HeLa Kyoto [4]; cell cycle stage: mitosis): 55.7 °C

Substance: PHF3
- solubility in G1/S (log2) (HeLa Kyoto [1]): -0.532
- solubility change mitosis (log2) (HeLa Kyoto [2]): 0.194
- thermal stability score (HeLa Kyoto [3]; [5]): 0.714
- thermal stability score (HeLa Kyoto [3]; cell cycle stage: mitosis): 2.75
- melting temperature (HeLa Kyoto [4]; cell cycle stage: G1/S): 53.2 °C
- melting temperature (HeLa Kyoto [4]; cell cycle stage: mitosis): 53.7 °C

Substance: MSLVAEAFVSQIAAAEPWPENATLYQQLKGEQILLSDNAASLAVQAFLQMCNLPIKVVCRANAEYMSPSGKVPFIHVGNQVVSELGPIVQFVKAKGHSLSDGLEEVQKAEMKAYMELVNNMLLTAELYLQWCDEATVGEITHARYGSPYPWPLNHILAYQKQWEVKRKMKAIGWGKKTLDQVLEDVDQCCQALSQRLGTQPYFFNKQPTELDALVFGHLYTILTTQLTNDELSEKVKNYSNLLAFCRRIEQHYFEDRGKGRLS [MTX2]
- solubility in G1/S (log2) (HeLa Kyoto [1]): 0.186
- solubility change mitosis (log2) (HeLa Kyoto [2]): 0.0491
- thermal stability score (HeLa Kyoto [3]; [5]): -0.339
- thermal stability score (HeLa Kyoto [3]; cell cycle stage: mitosis): -0.187
- melting temperature (HeLa Kyoto [4]; cell cycle stage: G1/S): 51.4 °C
- melting temperature (HeLa Kyoto [4]; cell cycle stage: mitosis): 52.2 °C

Substance: MAWTKYQLFLAGLMLVTGSINTLSAKWADNFMAEGCGGSKEHSFQHPFLQAVGMFLGEFSCLAAFYLLRCRAAGQSDSSVDPQQPFNPLLFLPPALCDMTGTSLMYVALNMTSASSFQMLRGAVIIFTGLFSVAFLGRRLVLSQWLGILATIAGLVVVGLADLLSKHDSQHKLSEVITGDLLIIMAQIIVAIQMVLEEKFVYKHNVHPLRAVGTEGLFGFVILSLLLVPMYYIPAGSFSGNPRGTLEDALDAFCQVGQQPLIAVALLGNISSIAFFNFAGISVTKELSATTRMVLDSLRTVVIWALSLALGWEAFHALQILGFLILLIGTALYNGLHRPLLGRLSRGRPLAEESEQERLLGGTRTPINDAS [SLC35F6]
- solubility in G1/S (log2) (HeLa Kyoto [1]): -0.144
- solubility change mitosis (log2) (HeLa Kyoto [2]): -0.0109
- thermal stability score (HeLa Kyoto [3]; [5]): -2.27
- thermal stability score (HeLa Kyoto [3]; cell cycle stage: mitosis): -5.04
- melting temperature (HeLa Kyoto [4]; cell cycle stage: G1/S): 60.1 °C
- melting temperature (HeLa Kyoto [4]; cell cycle stage: mitosis): 56 °C

Substance: MAGLTVRDPAVDRSLRSVFVGNIPYEATEEQLKDIFSEVGPVVSFRLVYDRETGKPKGYGFCEYQDQETALSAMRNLNGREFSGRALRVDNAASEKNKEELKSLGTGAPVIESPYGETISPEDAPESISKAVASLPPEQMFELMKQMKLCVQNSPQEARNMLLQNPQLAYALLQAQVVMRIVDPEIALKILHRQTNIPTLIAGNPQPVHGAGPGSGSNVSMNQQNPQAPQAQSLGGMHVNGAPPLMQASMQGGVPAPGQMPAAVTGPGPGSLAPGGGMQAQVGMPGSGPVSMERGQVPMQDPRAAMQRGSLPANVPTPRGLLGDAPNDPRGGTLLSVTGEVEPRGYLGPPHQGPPMHHVPGHESRGPPPHELRGGPLPEPRPLMAEPRGPMLDQRGPPLDGRGGRDPRGIDARGMEARAMEARGLDARGLEARAMEARAMEARAMEARAMEARAMEVRGMEARGMDTRGPVPGPRGPIPSGMQGPSPINMGAVVPQGSRQVPVMQGTGMQGASIQGGSQPGGFSPGQNQVTPQDHEKAALIMQVLQLTADQIAMLPPEQRQSILILKEQIQKSTGAP [CSTF2]
- solubility in G1/S (log2) (HeLa Kyoto [1]): 0.323
- solubility change mitosis (log2) (HeLa Kyoto [2]): 0.172
- thermal stability score (HeLa Kyoto [3]; [5]): -0.643
- thermal stability score (HeLa Kyoto [3]; cell cycle stage: mitosis): -0.392
- melting temperature (HeLa Kyoto [4]; cell cycle stage: G1/S): 53 °C
- melting temperature (HeLa Kyoto [4]; cell cycle stage: mitosis): 53.2 °C

Substance: TXNDC12
- solubility in G1/S (log2) (HeLa Kyoto [1]): 0.365
- solubility change mitosis (log2) (HeLa Kyoto [2]): 0.232
- thermal stability score (HeLa Kyoto [3]; [5]): -0.513
- thermal stability score (HeLa Kyoto [3]; cell cycle stage: mitosis): -0.814
- melting temperature (HeLa Kyoto [4]; cell cycle stage: G1/S): 53.5 °C
- melting temperature (HeLa Kyoto [4]; cell cycle stage: mitosis): 54.2 °C
